Results taken from publication PMC3182218, “Obesity Risk Gene TMEM18 Encodes a Sequence-Specific DNA-Binding Protein”.

B1: biotin-(GCT)8 (dsDNA)
DNA 1: GCTGCTGCTGCTGCTGCTGCTGCT
DNA 2: AGCAGCAGCAGCAGCAGCAGCAGC
B2: biotin-(GTG)8 (dsDNA)
DNA 1: GTGGTGGTGGTGGTGGTGGTGGTG
DNA 2: CACCACCACCACCACCACCACCAC

Target: TMEM18 (UniProt Q96B42 1-140)
Experiment: EMSA; 400 nM probe; EMSA: 10 mM Tris pH 7.4, 50 mM KCl, 1 mM DTT, 0.05% DDM, 30 min, RT; 4-20% TBE gel in 0.5x TBE
Conditions: protein: recombinant, tags: N-terminal Flag-His8, blunt

Sequence of TMEM18 (Q96B42 whole entry): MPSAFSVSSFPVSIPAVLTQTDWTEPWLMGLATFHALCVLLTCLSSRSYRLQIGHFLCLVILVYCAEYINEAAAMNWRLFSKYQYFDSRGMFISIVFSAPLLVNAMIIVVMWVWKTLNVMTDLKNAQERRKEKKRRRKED

Binder | binding result (label: 5' biotin on (GCT)8 strand) | binding result (label: 5' biotin on (GTG)8 strand)
B1 | binds | –
B2 | – | no binding
